Source: US6703362 (dated 2004)
Where “and” joins values, the source holds several entries; their conditions need not be identical. Identical values can stand only once. Ends that are not written are not given here. * marks the point of attachment. Dansyl = CN(C)c1cccc2c(S(=O)(=O)*)cccc12

Experiments:
C2BBe1 fixed cells [1] = assay: competition ELISA on fixed cells; vs GST-PAX2
C2BBe1 fixed cells [2] = assay: competition ELISA on fixed cells; vs GST-P31
C2BBe1 fixed cells [3] = assay: competition ELISA on fixed cells; vs GST-HAX42
[4] = target: C2BBe1 fixed cells (GST-P31 competition); assay: competition ELISA on fixed cells; vs GST-P31

Binder	IC50 (C2BBe1 fixed cells [1])	IC50 (C2BBe1 fixed cells [2]) [nM]	IC50 (C2BBe1 fixed cells [3]) [nM]	IC50 [4] [nM]
K(Dansyl)SDHALGTNLRSDNAKEPGDYNCCGNGNSTGRKVFNRRRPSAIPT-NH2 (cysteine pairing not given here) [Z21(HAX42)]	700 nM	1700	–	–
K(Dansyl)SDHALGTNLRSDNAKEPGDYNCCGNGNSTGRKVFNRRRPSAIPT-NH2 (cysteine pairing not given here) [ELAN021(HAX42)]	–	–	5500	–
K(Dansyl)STPPSREAYSRPYSVDSDSDTNAKHSSHNRRLRTRSRPNG-NH2 [ELAN018(PAX2)]	600 nM and 1000 nM	–	230	–

The remaining lines, values ahead:

IC50 (C2BBe1 fixed cells [1])	IC50 (C2BBe1 fixed cells [2]) [nM]	IC50 (C2BBe1 fixed cells [3]) [nM]	IC50 [4] [nM]	Binder
–	500	–	–	K(Dansyl)SARDSGPAEDGSRAVRLNGVENANTRKSSRSNPRGRRHPGG-NH2 [ELAN024(P31)]
–	–	–	940	K(Dansyl)SARDSGPAEDGSRAVRLNGVENANTRKSSRSNPRGRRHPGG-NH2 [z024(P31)]
